Test results: patent US20170015738A1

Columns and labels:
[1] = target: hyper-phosphorylated P301L mutant human 4R0N tau from rTg4510 mouse brain (64 and 70 kDa species; P3 / brain extract) (human) (UniProt P10636); test: MSD ELISA on immobilised P3; ratio of binding to Tg4510 over wt mouse material
[2] = target: hyper-phosphorylated P301L mutant human 4R0N tau from rTg4510 mouse brain (64 and 70 kDa species; P3 / brain extract) (human) (UniProt P10636); test: immunodepletion of rTg4510 brain extracts; western blot quantification (FIG. 14)
[3] = target: hyper-phosphorylated P301L mutant human 4R0N tau from rTg4510 mouse brain (64 and 70 kDa species; P3 / brain extract) (human) (UniProt P10636); test: immunodepletion of rTg4510 brain extract with antibody on Protein G Dynabeads; western blot
[4] = target: hyper-phosphorylated P301L mutant human 4R0N tau from rTg4510 mouse brain (64 and 70 kDa species; P3 / brain extract) (human) (UniProt P10636); test: cell-based or functional assay
[5] = target: hyper-phosphorylated P301L mutant human 4R0N tau from rTg4510 mouse brain (64 and 70 kDa species; P3 / brain extract) (human) (UniProt P10636); test: fluid phase MSD ELISA: antibody mixed with rTg4510 P3 in solution, capture on C10-2 coated plates
[6] = target: aggregated tau in rTg4510 brain extract (Cisbio assay) (human) (UniProt P10636); test: immunodepletion of rTg4510 brain extract with antibody on Protein G Dynabeads; Cisbio aggregation assay
Chain of aggregated tau in rTg4510 brain extract (Cisbio assay) (human) (P10636 other isoform, or with tags, fused parts or gaps): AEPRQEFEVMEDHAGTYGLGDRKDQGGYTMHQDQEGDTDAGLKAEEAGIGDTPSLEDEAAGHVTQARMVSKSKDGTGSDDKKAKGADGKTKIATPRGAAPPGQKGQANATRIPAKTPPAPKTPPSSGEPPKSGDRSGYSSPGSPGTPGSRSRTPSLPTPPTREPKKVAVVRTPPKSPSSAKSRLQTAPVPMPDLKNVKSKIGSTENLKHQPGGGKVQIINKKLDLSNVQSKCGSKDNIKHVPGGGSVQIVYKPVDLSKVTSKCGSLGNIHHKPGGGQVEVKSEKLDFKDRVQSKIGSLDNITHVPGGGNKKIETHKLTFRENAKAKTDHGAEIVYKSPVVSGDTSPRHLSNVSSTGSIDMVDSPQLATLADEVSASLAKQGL

Chain of hyper-phosphorylated P301L mutant human 4R0N tau from rTg4510 mouse brain (64 and 70 kDa species; P3 / brain extract) (human) (P10636 other isoform, or with tags, fused parts or gaps P301L P301L): as the sequence (P10636 other isoform, or with tags, fused parts or gaps) above

| Binder | TG/wt [1] [fold] | percent reduction of the 64 kDa band [2] [%] | percent removed by immunodepletion [3] [%] | prevention of insoluble tau in HEK293 cells seeded with immunodepleted rTg4510 homogenate (western blot) [4] [%] | prevention of tau aggregation in HEK293 cells seeded with immunodepleted rTg4510 homogenate (Cisbio assay) [4] [%] | IC50 [5] [nM] | percent of tau aggregates removed [6] [%] |
| --- | --- | --- | --- | --- | --- | --- | --- |
| 4E4 antibody (antibody, from another filing, V domains shown) VH: EVQLVESGGGLVQPGGSLKLSCAASGFNFNISAIHWVRQASGKGLEWVGRIRSKSHNYATLYAASLKGRFTLSRDDSRNTAYLQMSSLQTEDMAVYYCTVLSANYDTFDYWGQGTLVTVSS VL: SYELTQPPSVSVSPGQTARISCFGDTLPKQYTYWYQQKPGQAPVLVIYKDTERPSGIPERFSGSSSGTTVTLTISGVQAEDEADYYCLSADNSATWVFGGGTKVTVL | 1 |  |  |  |  |  |  |
| Antibody D1.2 (antibody, mouse IgG2b, kappa, V domains shown) VH: QVQLQQSGAELVRPGASVTLSCKASGNTFTDYEIHWVKQTPVHGLEWIGAIDPETGNTAYNQKFKGKARLTADKSSSTAYMELRSLTSEDSAVYYCTRSRGFDYWGQGTTLTVSS VL: DVMMTQTPLSLPVSLGDQASISCRSSQSLVHSNGNTYLHWHLQKPGQSPKFLIYKVSNRFSGVPDRFSGSGSGTDFTLKISRVEAEDLGVYFCSQSTHVPFTFGSGTKLEIKR |  | 90 | 95 |  |  |  |  |
| Antibody C10-2 (murine) (antibody, mouse IgG1, kappa, V domains shown) VH: QVQLQQSDAELVKPGASVKISCKASGYTFTDRTIHWVKQRPEQGLEWIGYIYPGDGSTKYNENFKGKATLTADKSSSTAYMQLNSLTSEDSAVYFCARRGAMDYWGQGTSVTVSS VL: DVQMIQSPSSLSASLGDIVTMTCQASQGTSINLNWFQQKPGKAPKLLIYGASNLEDGVPSRFSGSRYGTDFTLTISSLEDEDMATYFCLQHTYLPFTFGSGTKLEIKR | 118 | 90 | 95 | 97 | 88 | 20 | 99 |
